Reference: patent US20030219853

Tests used:
[1] = target: bovine serum albumin (BSA) (UniProt P02769)
ovalbumin = ovalbumin (UniProt P01012)
[2] = target: recombinant serum albumin (UniProt P02768)
β-casein = target: T1, β-casein (UniProt P02666)
T1 sequence: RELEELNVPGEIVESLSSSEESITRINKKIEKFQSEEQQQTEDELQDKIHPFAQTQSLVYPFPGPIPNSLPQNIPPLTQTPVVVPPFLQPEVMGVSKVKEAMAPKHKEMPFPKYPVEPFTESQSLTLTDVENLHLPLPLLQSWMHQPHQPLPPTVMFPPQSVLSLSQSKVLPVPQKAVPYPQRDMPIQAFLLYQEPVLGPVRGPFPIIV

Chain of bovine serum albumin (BSA) (P02769 25-607): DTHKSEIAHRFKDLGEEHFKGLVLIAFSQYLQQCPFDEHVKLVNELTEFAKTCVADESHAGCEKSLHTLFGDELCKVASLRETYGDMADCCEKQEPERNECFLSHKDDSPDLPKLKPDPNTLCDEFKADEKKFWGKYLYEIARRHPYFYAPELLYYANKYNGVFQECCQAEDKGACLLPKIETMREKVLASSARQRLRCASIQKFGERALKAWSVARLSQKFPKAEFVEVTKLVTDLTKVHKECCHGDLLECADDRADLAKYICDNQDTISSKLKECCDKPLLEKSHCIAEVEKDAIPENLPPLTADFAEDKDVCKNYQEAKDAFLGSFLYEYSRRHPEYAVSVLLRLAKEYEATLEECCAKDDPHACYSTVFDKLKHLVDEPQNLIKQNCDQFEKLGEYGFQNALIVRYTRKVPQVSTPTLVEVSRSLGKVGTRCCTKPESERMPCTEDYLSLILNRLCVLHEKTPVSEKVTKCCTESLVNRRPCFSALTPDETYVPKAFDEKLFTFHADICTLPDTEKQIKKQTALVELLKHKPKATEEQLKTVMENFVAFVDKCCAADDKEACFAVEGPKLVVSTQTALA
Chain of ovalbumin (P01012 2-386): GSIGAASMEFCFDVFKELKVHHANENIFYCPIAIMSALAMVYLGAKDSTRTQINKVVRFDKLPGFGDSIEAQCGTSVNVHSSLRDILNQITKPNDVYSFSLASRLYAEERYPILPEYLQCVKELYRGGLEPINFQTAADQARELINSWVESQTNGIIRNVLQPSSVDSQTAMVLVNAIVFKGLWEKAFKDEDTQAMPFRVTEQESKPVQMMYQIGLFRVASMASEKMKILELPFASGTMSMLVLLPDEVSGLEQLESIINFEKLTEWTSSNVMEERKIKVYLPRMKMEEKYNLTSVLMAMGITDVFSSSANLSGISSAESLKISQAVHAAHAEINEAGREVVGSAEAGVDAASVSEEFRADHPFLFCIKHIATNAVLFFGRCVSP

B1: recombinant 6x-His-TGase fusion protein of Streptomyces mobaraensis ATCC 29032 (enzyme, UniProt P81453 77-407, looked up)
Protein-glutamine gamma-glutamyltransferase: DSDDRVTPPAEPLDRMPDPYRPSYGRAETVVNNYIRKWQQVYSHRDGRKQQMTEEQREWLSYGCVGVTWVNSGQYPTNRLAFASFDEDRFKNELKNGRPRSGETRAEFEGRVAKESFDEEKGFQRAREVASVMNRALENAHDESAYLDNLKKELANGNDALRNEDARSPFYSALRNTPSFKERNGGNHDPSRMKAVIYSKHFWSGQDRSSSADKRKYGDPDAFRPAPGTGLVDMSRDRNIPRSPTSPGEGFVNFDYGWFGAQTEADADKTVWTHGNHYHAPNGSLGAMHVYESKFRNWSEGYSDFDRGAYVITFIPKSWNTAPDKVKQGWP
modifications: N-terminal 6xHis tag
BSA5 peptide
  cross-linking of BSA5 peptide on SDS-PAGE: increased amount of recombinant SM TGase corresponding to an increase in cross-linked (CL) BSA5 peptide, which run as a large molecular weight polymer on the top of the separating gel
[1]
  cross-linking on SDS-PAGE, native and modified (denatured, dialyzed) protein: only the reactions containing the modified protein species of BSA, histine H3 protein, glucose oxidase, and ovalbumin were cross-linked by the purified recombinant SM TGase
Histone H3 protein
  cross-linking on SDS-PAGE, native and modified (denatured, dialyzed) protein: only the reactions containing the modified protein species of BSA, histine H3 protein, glucose oxidase, and ovalbumin were cross-linked by the purified recombinant SM TGase; complete and partial cross-linking was both observed for native histine H3 protein
ovalbumin
  cross-linking on SDS-PAGE, native and modified (denatured, dialyzed) protein: only the reactions containing the modified protein species of BSA, histine H3 protein, glucose oxidase, and ovalbumin were cross-linked by the purified recombinant SM TGase
[2]
  cross-linking of recombinant serum albumin on SDS-PAGE: the cross-linking reaction containing recombinant serum albumin revealed a mixture of very high molecular weight polymers of different length
β-casein
  cross-linking of a mixture of β-casein and glucose oxidase on SDS-PAGE: both protein species can be cross-linked by the purified recombinant SM TGase, as indicated by the disappearance of the two monomer bands
  cross-linking of β-casein on SDS-PAGE: the cross-linked (CL) β-casein migrated as a smear on the SDS-PAGE gel indicating a mixture of high molecular weight polymers of different length
  cross-linking of β-casein on SDS-PAGE, 0 mM DTT: in the absence of DTT (lane 1 and 2), the recombinant SM TGase had no cross-linking activity on β-casein and β-casein runs as a monomer
  cross-linking of β-casein on SDS-PAGE, about 2 mM DTT: the recombinant SM TGase was activated and β-casein run as a mixture of cross-linked polymer and monomer
  cross-linking of β-casein on SDS-PAGE, about 10 mM DTT: the catalytic cross-linking activity of SM TGase resulted in cross-linking of all detectable β-casein substrates in the reaction
